From paper PMC4866825, “The GIRK1 subunit potentiates G protein activation of cardiac GIRK1/4 hetero-tetramers” (eLife, 2016)
One block for each molecule: values may come before it.

Assays:
[1] = target: GIRK4 homo-tetramers, purified and reconstituted into proteoliposomes and planar lipid bilayers (human) (UniProt P48544)
[2] = target: GIRK4 homo-tetramers, purified and reconstituted into proteoliposomes and planar lipid bilayers (human) (UniProt P48544); remark: listed apart in the source
[3] = target: GIRK1(N217D)/4 hetero-tetramers, purified and reconstituted into proteoliposomes and planar lipid bilayers (human) (UniProt P48549); settings: scale: not given
[4] = target: GIRK1/4 hetero-tetramers, purified and reconstituted into proteoliposomes and planar lipid bilayers (human) (UniProt P48549)
[5] = target: the molecule itself; assay: SEC; fluorescent size-exclusion chromatography (FSEC) of solubilized HEK293T cell lysate, Superose 6 10/300 GL; 50 mM HEPES-KOH pH 7.35, 150 mM KCl, 4% DM for solubilization; GFP fluorescence followed
[6] = target: T1, GIRK1-His (human full-length GIRK1 with C-terminal PreScission site, eGFP and deca-histidine tag) (human, UniProt P48549 1-501); assay: SEC; purified GIRK1/4 after PreScission cleavage of eGFP and tags, Superose 6 10/300 GL in 20 mM Tris-HCl pH 7.5, 150 mM KCl, 0.2% DM, 20 mM DTT, 1 mM EDTA; fractions of the peak run on 12% SDS-PAGE, band intensities compared; settings: both partners purified
T1 construct: G protein gated inward rectifier K+ channel subunit GIRK1, human, full length; also called His-tagged GIRK1; GIRK1 subunit; source: HEK293S GnTI- cells, BacMam transduced together with GIRK4-1D4 (1:1), solubilized in DM; not shown: eGFP, C-terminal, kept; His10, C-terminal, kept
T1 sequence (looked up): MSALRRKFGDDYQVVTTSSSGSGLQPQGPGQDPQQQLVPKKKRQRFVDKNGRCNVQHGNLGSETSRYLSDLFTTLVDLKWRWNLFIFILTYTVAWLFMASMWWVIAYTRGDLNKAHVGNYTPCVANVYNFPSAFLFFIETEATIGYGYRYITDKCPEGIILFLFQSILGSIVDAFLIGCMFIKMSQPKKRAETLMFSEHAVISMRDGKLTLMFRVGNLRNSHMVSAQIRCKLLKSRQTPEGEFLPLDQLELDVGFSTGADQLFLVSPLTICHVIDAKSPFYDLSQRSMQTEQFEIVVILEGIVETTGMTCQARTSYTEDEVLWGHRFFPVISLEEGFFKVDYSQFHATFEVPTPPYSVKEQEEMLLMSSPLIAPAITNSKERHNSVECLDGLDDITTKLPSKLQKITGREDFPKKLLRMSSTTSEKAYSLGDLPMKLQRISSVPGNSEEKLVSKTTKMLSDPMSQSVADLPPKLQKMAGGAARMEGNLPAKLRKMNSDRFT

B1: GIRK4 subunit fused to GFP (GIRK4-1D4-pEG BacMam construct) (natural protein, human, UniProt P48544 1-419, looked up)
chain: MAGDSRNAMNQDMEIGVTPWDPKKIPKQARDYVPIATDRTRLLAEGKKPRQRYMEKSGKCNVHHGNVQETYRYLSDLFTTLVDLKWRFNLLVFTMVYTVTWLFFGFIWWLIAYIRGDLDHVGDQEWIPCVENLSGFVSAFLFSIETETTIGYGFRVITEKCPEGIILLLVQAILGSIVNAFMVGCMFVKISQPKKRAETLMFSNNAVISMRDEKLCLMFRVGDLRNSHIVEASIRAKLIKSRQTKEGEFIPLNQTDINVGFDTGDDRLFLVSPLIISHEINQKSPFWEMSQAQLHQEEFEVVVILEGMVEATGMTCQARSSYMDTEVLWGHRFTPVLTLEKGFYEVDYNTFHDTYETNTPSCCAKELAEMKREGRLLQYLPSPPLLGGCAEAGLDAEAEQNEEDEPKGLGGSREARGSV
notes: G protein gated inward rectifier K+ channel subunit GIRK4, human, full length; A PreScission protease cleavage site stands between GIRK4 and eGFP-1D4; not cut for FSEC; also called GIRK4 homo-tetramers; source: HEK293T, transiently transfected, in solubilized cell lysate (4% DM); not shown: eGFP, C-terminal, kept; 1D4 peptide, C-terminal, kept
- stoichiometry N [5]: 4 subunits

B3: GIRK1 subunit fused to GFP (GIRK1-His10-pEG BacMam construct) (natural protein, human, UniProt P48549 1-501, looked up)
chain: T1 sequence (looked up)
notes: G protein gated inward rectifier K+ channel subunit GIRK1, human, full length; A PreScission protease cleavage site stands between GIRK1 and eGFP-His10; not cut for FSEC; also called GIRK1 homo-tetramers; source: HEK293T, transiently transfected, in solubilized cell lysate (4% DM); not shown: eGFP, C-terminal, kept; His10, C-terminal, kept
- stoichiometry N [5]: 4 subunits

Continued, values first:

- normalized GIRK4 current in planar lipid bilayers at 0.001 Ni-NTA mole fraction, 0 to 32 mM Na+ (normalized current) [1]: 0.34
- b, cooperativity factor for Gβγ binding, from the fit of the equilibrium gating model to normalized planar lipid bilayer currents [2]: 0.6
- Kdb from a fit of the 25-state equilibrium gating model to normalized planar lipid bilayer currents against Ni-NTA-lipid mole fraction (membrane sGβγ-His10 density) at 0, 8 and 32 mM Na+ ([2]; scale: not given): 0.004
- Kdb from a fit of the equilibrium gating model (b and θ4,4 fixed) to normalized planar lipid bilayer currents against Ni-NTA-lipid mole fraction at 0, 8 and 32 mM Na+ [3]: 0.0024
- b, cooperativity factor for Gβγ binding, from the fit of the equilibrium gating model to normalized planar lipid bilayer currents [4]: 0.6
- Kdb from a fit of the equilibrium gating model (two Na+ sites permanently occupied) to normalized planar lipid bilayer currents against Ni-NTA-lipid mole fraction at 0, 8 and 32 mM Na+ ([4]; scale: not given): 0.004
Molecule: soluble Gβγ with a deca-histidine-tag instead of its physiological lipid anchor (sGβγ-His10) (from UniProt P62873 1-340; P59768 1-71) (complex)

- stoichiometry N [6]: 1 GIRK4 per GIRK1 (2:2 in the tetramer)
B2: GIRK4-1D4 (human full-length GIRK4 with C-terminal PreScission site, eGFP and 1D4 peptide tag) (natural protein, UniProt P48544 1-419, looked up)
chain: B1 chain
notes: G protein gated inward rectifier K+ channel subunit GIRK4, human, full length; also called 1D4-tagged GIRK4; GIRK4 subunit; source: HEK293S GnTI- cells, BacMam transduced together with GIRK1-His (1:1), solubilized in DM; not shown: eGFP, C-terminal, kept; 1D4 peptide, C-terminal, kept
